The target in the experiment is GST-CENP-C (1-727) (human, UniProt Q03188 1-727). Briefly: pull-down.
Sequence of GST-CENP-C (1-727) (Q03188 1-727): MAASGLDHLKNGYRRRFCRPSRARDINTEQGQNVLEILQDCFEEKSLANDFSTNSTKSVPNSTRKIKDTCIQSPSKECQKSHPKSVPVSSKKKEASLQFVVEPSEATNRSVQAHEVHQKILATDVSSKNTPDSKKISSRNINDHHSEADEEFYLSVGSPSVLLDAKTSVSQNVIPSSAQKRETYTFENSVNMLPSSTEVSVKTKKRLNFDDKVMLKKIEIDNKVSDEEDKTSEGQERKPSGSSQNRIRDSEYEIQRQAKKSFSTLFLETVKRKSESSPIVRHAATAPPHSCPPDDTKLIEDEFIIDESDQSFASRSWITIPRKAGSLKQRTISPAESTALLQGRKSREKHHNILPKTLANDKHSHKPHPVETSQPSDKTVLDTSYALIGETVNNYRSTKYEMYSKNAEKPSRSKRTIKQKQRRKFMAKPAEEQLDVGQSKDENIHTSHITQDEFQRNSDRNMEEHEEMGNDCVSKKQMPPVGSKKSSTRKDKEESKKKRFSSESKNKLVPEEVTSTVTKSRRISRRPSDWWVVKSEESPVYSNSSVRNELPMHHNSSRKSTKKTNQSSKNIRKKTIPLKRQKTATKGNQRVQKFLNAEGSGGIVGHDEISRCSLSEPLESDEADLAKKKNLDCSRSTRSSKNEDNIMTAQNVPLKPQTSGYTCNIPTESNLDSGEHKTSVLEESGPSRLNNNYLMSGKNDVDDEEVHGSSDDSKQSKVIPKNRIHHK

B1: His-CENP-B (161–599) (domain or fragment, human, UniProt P07199 161-599, looked up)
chain: PSEGSGGSTTGWRAREEQPPSVAEGYASQDVFSATETSLWYDFLPDQAAGLCGGDGRPRQATQRLSVLLCANADGSEKLPPLVAGKSAKPRAGQAGLPCDYTANSKGGVTTQALAKYLKALDTRMAAESRRVLLLAGRLAAQSLDTSGLRHVQLAFFPPGTVHPLERGVVQQVKGHYRQAMLLKAMAALEGQDPSGLQLGLTEALHFVAAAWQAVEPSDIAACFREAGFGGGPNATITTSLKSEGEEEEEEEEEEEEEEGEGEEEEEEGEEEEEEGGEGEELGEEEEVEEEGDVDSDEEEEEDEESSSEGLEAEDWAQGVVEAGGSFGAYGAQEEAQCPTLHFLEGGEDSDSDSEEEDDEEEDDEDEDDDDDEEDGDEVPVPSFGEAMAYFAMVKRYLTSFPIDDRVQSHILHLEHDLVHVTRKNHARQAGVRGLGHQS
On to B1, for which the binding result is given as “binds”.

The values are drawn from article PMC7560200 (The EMBO Journal, 2020).
